Reference: patent US20030171537, “Peptides and peptidomimetics with structural similarity to human p53 that activate p53 function” (published 2003)

Target: p53 wild-type (Homo sapiens, UniProt P04637 SEQ:1-393)
Assay: EMSA; binds quite efficiently; PAb421 stimulation +
Conditions: chain copies: 4 inferred; label: 32P
Method: Briefly the in vitro translated protein is incubated with a radioactively labeled oligonucleotide containing a p53 binding site in the presence of non-specific competitor DNA. The reaction mixture is incubated 20 min. at room temperature and directly loaded on a native 5% polyacrylamide electrophoresis gel. In this type of DNA binding assay free DNA migrates to the bottom of the gel, whereas p53/DNA complexes migrate more slowly.

Sequence of p53 wild-type (P04637 whole entry): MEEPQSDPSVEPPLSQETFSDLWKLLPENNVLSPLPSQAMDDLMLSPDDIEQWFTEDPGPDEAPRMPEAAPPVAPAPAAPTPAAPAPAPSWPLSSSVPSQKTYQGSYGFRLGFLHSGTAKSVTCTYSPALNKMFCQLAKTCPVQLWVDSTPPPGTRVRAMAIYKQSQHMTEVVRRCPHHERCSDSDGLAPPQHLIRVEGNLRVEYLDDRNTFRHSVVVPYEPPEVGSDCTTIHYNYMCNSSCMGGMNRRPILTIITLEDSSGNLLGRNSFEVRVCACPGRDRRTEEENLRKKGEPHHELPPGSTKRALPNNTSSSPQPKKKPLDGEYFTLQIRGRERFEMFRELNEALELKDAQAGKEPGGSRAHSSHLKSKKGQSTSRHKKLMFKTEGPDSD

B1: BC (dsDNA)
DNA 1: CCGGGCATGTCCGGGCATGTCCGGGCATGT
DNA 2: ACATGCCCGGACATGCCCGGACATGCCCGG
binding result: binds
